Test results: the nanobody polyreactivity screen of Harvey et al. (2022)

Assay: yeast display, Sf9 membrane polyspecificity reagent, FACS + sequencing; frameworks hold sequencing errors
Summary of the method: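 Galactose-induced (36–48 hours) yeast carrying a synthetic nanobody display library were exposed to 10% biotinylated, detergent-solubilized Sf9 membrane reagent at 4 °C for 1 hour. FACS followed streptavidin microbead enrichment, using low and high (top ~1%) gates for expression (anti-HA) and reagent binding (streptavidin). Colony PCR, MiSeq 2 × 250 sequencing and CDR-length filtering followed. Labels for polyreactivity reflect the gate of origin.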

Sequence: QVQLVESGGGLVQAGGSLRLSCAASGRTSPVYAMGWYRQAPGKERELVAAIRGGARTYYADSEKGRFTISRDNAKNTVYLQMNSLKPEDTAVYYCATGSRYRLGPGDSWGQGTQGTVSS
- polyreactivity (PSR sort gate): high polyreactivity

Sequence: QVQLVESGGGLVQAGGSLRLSCAASGFTFYGNAMGWYRQAPGKERDLVAAITGRAGRTYYADSVKGRFTISRDNSKNTVYLQMNSLKPEDTAVYYCAVQVAQSRTFSTYGYWGQGTQVTVSS
- polyreactivity (PSR sort gate): high polyreactivity

Sequence: QVQLVESGGGLVQAGGSLRLSCAASGYIFRRYAMGWYRQAPGKERELVAAISFSGGSTYYADSVKGRFTISRDNAKNTVYLQMNSLKPEDTAVYYCAALSLLRYDYWGQGTQVTVSS
- polyreactivity (PSR sort gate): high polyreactivity

Sequence: QVQLVESGGGLVQAGGSLRLSCAASGSILYYNAMGWYRQAPGKERELVAGIRSSGGSTYYADSVKGRFTISRDTAKNTVYLQMNSLKPEDTAVYYCAKRTYWRRGWGFDYWGQGTQVTVSS
- polyreactivity (PSR sort gate): high polyreactivity

Sequence: QVQLVESGGGLVQAGGSLRLSCAASGRTFWYYAMGWYRQSPGKERELVAVITSGSSTYYADSVKGRFTISRDNAKNTVYLQMNSLKPEDTAVYYCNKLGRIQYDYWGQGTQVTVSS
- polyreactivity (PSR sort gate): high polyreactivity

Sequence: QVQLVESGGGLVQAGGTLRLSCAASGSTFNEYAMGWYRQAPGKERELVAAIDERGGNTYYADSVKGRFTISRDNAKNTVYLQMNSLKPEDTAVYYCAADAYPYYQSYYPFEYWGQGTQVTVSS
- polyreactivity (PSR sort gate): low polyreactivity

Sequence: QLQLVESGGGLVQAGGSLRLSCAASGSTLSDNAMGWYRQAPAKERELVASISWSGGTYYADSVKGRFTISRDNANNTVYLQMNSLKPEDTAVYYCAAYIYYNYSRQYWYDYWGQGTQVTVSS
- polyreactivity (PSR sort gate): low polyreactivity

Sequence: QVQLVESGGDLVQAGGSLRLSCAASGYTFIVKAMGWYRQAPGKERELVAGISYRGGRTFYADSVKGRFTISRDNAKNNVYLQMNSLKPEDTAVYYCAARKTGIPFYNYDYWGQGTQVTVSS
- polyreactivity (PSR sort gate): low polyreactivity

Sequence: QVQLVESGGGLDQAGGSLRLSCAASGFIYWYYAMGWYRQAPVKERELVAAITRGGSTNYADSVKGRFTISRDNAKNTVYFQKNRLKPEDTSVYYCNASWRLVSSGFDGGYWGEGTQVTVSS
- polyreactivity (PSR sort gate): high polyreactivity

Sequence: QVQLVESGGGLVQAGGSLRLSCAASGSTFYRNAMGWYRPAPGKERELVAAINSTDSTNYADSVKGRFTISRDNAKNTVYLQMNSLKPEDTAVYYCAAVGDNLATAEYDYWGQGTQVTVSS
- polyreactivity (PSR sort gate): low polyreactivity

Sequence: QVQLVESGGGLVQAGGSLRLSCAASGRIFKYYAKGWYRQAPGKERELVAAITSSGVSTYADSVKGRFTISRDNAKNTVYLQMNSLKPEDTAVYYCAADYVREGLGYDYWGQGTQVTVSS
- polyreactivity (PSR sort gate): low polyreactivity

Sequence: QVQLVESGGGLVQAGGSLRLSCAASGRTFDWYAMGWYRQAPGKERELVAVITGRGGSTYYADSVKGRFTISRDNAKNTVYLQMNSLKPEDTAVYYCAVDRLRYRLGFGFKFDYWGQGTQVTVSS
- polyreactivity (PSR sort gate): low polyreactivity

Sequence: QVQLVESGGGLVKAGGSLRLSCAASGFIFVPYAMGWYRQAPGKERELVAAITWSSGGNTYYADSVKGRFTISRDNAKNTVYLQMNSLKPEDTAVYYCAAEWYEAGYWYDYWGQGTQVTVSS
- polyreactivity (PSR sort gate): high polyreactivity

Sequence: QVQLVESGGGLVQAGGSLRLSCAASGRIFYLNAMGWYRQAPGKERELVAAMSGSTGSTYYADSVKGRFTISRDNAKNTVYLQMNSLKPEDTAVYYCNAVLSSNTKWRYPGDYWGQGTQVTVSS
- polyreactivity (PSR sort gate): low polyreactivity

Sequence: QVQLVESGGGLVQAGGSLRLSCAASGRIFGRYTMGWYRQAPGKGRELDAAISDSGDSTYADSVKGRFTISRDNAKNSVYFQMNSLKPEDTAVYFCNAQSGSFAGHEYDYWGQGTQLTVSS
- polyreactivity (PSR sort gate): low polyreactivity

Sequence: QVQLVESGGGLVQAGGSLRLSCAASGSTFSTYAMGWYRQAPGKERELVAAISRTGGSTYYADSVKGRFTISRDNAKNTVYLQMNSLKPEDTAVYYCATGDSGGYDYWGQGTQVTVSS
- polyreactivity (PSR sort gate): low polyreactivity

Sequence: QVQVVESGGGLVQAGGSLRLSCAASGSIIYYYAMGWYRQAPGKERELVARISWNGGSTYYADSVKGRFTISRDNAKNTVYLQMNSLKPEDNAVYYCAARPWHHYYWGQGTQVTVSS
- polyreactivity (PSR sort gate): high polyreactivity

Sequence: QVQLVESGGGLVQAGGSLRLSCAASGSTFRSNAMGWYRQAPGKERVLVAAISRSGGSTYYADSVKGRFTISRDNAKNSVYLQMNSLKPEDTAVYYCAGRYSRDPRTGDYGYCGQGTQVTVSS
- polyreactivity (PSR sort gate): low polyreactivity

Sequence: QVQLVESGGGLVQAGGSLRLSCAASGYIFPYYPMGWYRQAPGKQRELVAAISRSGGGTYYADSVKGRFTISRDIANNTVYLQMNSLKPEDTALYYCNRRSGHVHEYDYWGQGTQVTVSS
- polyreactivity (PSR sort gate): low polyreactivity

Sequence: QVQLVESGGGLVHAGGSLSLSCAASGSIFGYYAKGWYRQAPGKERELVAAITVSGGSTYYADSVKGRFTISRDNAKNTDYLQLISLKPEDTAVYYCAADDIYGEYYYWGQGTQVTVSS
- polyreactivity (PSR sort gate): high polyreactivity

Sequence: QVQLVESGGGLVQAGGSLRLSCAASGRTFGYYTMGWYRQSPGKERELVATISSDGTTNYADSVKGRFTISRDNAKNTVYLQMNSLKPEDTAVYYCNADFRLQYYYRIYDYWGQGTQVTVSS
- polyreactivity (PSR sort gate): low polyreactivity

Sequence: QVQLVESGGGLVQAGGSLRLRCAASGFTYSYYAMGWYRQAPGKERELVAAINSGGSTYYADSVKGRFTISRDNAKNTVFLLMNSLKPEDTAVYYCAAVYSPGRGYGYIYYYWGQGSQVTVSS
- polyreactivity (PSR sort gate): high polyreactivity

Sequence: QVQLVESGGGLVQAGGSLRLTCAASGSILYTYAMGWYRQAPGKERELVAAISRGGGSTYYADSVKGRFTISRDNAKNTVYLQMNSLKPEDTAVYYCAARKLTRGTGRDDEYWGQGTQVTVSS
- polyreactivity (PSR sort gate): high polyreactivity

Sequence: QVQLVESGGGLVQAGGSLRLSCAASGSIFLPYAMGWYRQAPGKEREFVAAIRWSTGRTFYADSVKGRFTISRDNAKNTVYLQMNSLKPEDTAVYYCAAVWPDVRGYDYWGQGTQVTVSS
- polyreactivity (PSR sort gate): high polyreactivity

Sequence: QVQLVESGGGLVQAGGSLRLSCAASGFIFSTYAMGWYRQAPGKERELVSAISCSTGSTYYADSVKGRFTISRDNAKNTVYLQMNSLKPEDTAVYYCNALRRPSTEGRDYWGQGTQVTVSS
- polyreactivity (PSR sort gate): high polyreactivity

Sequence: QVQLVESGGGLVQAGGSLRLSCAASGSTFRVYAMGWYRQAPGKESELVATISWGGGRTYYADSVKGRFTISRDNAKNTVYLLMNSLKPEDTAVYYCAADQRWTTDQPTAGDYWGQGTQVTVSS
- polyreactivity (PSR sort gate): low polyreactivity

Sequence: QVQLVESGGGLVLAGGSLRLTCAASGRTFSQYTMGWYRQAPGKERELVAAISVSGTSTYYADSVKGRFTISRDNAKNTVYLQMNSLKPEDTAVYYCAAGYQRITRFAHRKYGYWGQGTQVTVSS
- polyreactivity (PSR sort gate): high polyreactivity

Sequence: QVQLVESGGGLVQAGGSLRLSCAASGNTFNVYAMGWYRQAPGKERELVAAITLSGGSTYYADSVKGRFTISRDNEKNTVYLQMNSLKPEDTAVYYCNAEEDGTDYDYWGQGTQVTVSS
- polyreactivity (PSR sort gate): low polyreactivity

Sequence: QVQLVESGGGLVQAGGSLRLSCAASGSTFSYYTMGWYRQAPGKERELVAAISRTGGSTYYADSVKGRFTISRDNAKNTVYLQMNSLKPEDTAVYYCAAKGYVGRYDYWGQGTQVTVSS
- polyreactivity (PSR sort gate): high polyreactivity

Sequence: QDQLEESGGGLVQAGGSLRLSCAASGFTFGNNAMGWYRQAPGKERELDAAISKRGSSTYYADSVKGRFTISRDNAKNTVYLLMNSLKPDDTAVYYCAAQTPYYLLYDTGDYLGQGTQVTVSS
- polyreactivity (PSR sort gate): high polyreactivity

Sequence: QVQLVESGGGLVQAGGSLRLSCAASGRTFTVYTMGWYRQAPGKERELVAVISTGGRTYYADSVKGRFTISRDNAKNTVYLQMNSLNPEDTAVYYCAAKFTREYYWGQGTQVTVSS
- polyreactivity (PSR sort gate): high polyreactivity

Sequence: QVQLVESGGGLVQAGGSLRLSCAAYGRIFRYYAMGWYRQAPGKERELVAGISWRGSSTYYADSVKGRFTLSRDNAKNTVYLQMNSLKPEDTAVYYCNRDQSNIPVTGVRFYYWGQGTQVTVSS
- polyreactivity (PSR sort gate): high polyreactivity

Sequence: QVQLVESGGGLVQAGGSLRLSCAASGRILWQYAMGWYRPAPGKERELVAAITSSGADTYYADSVKGRFTISRDNAKNTVYLQMNSLKPEDTAVYYCNADASAVVYKFGFGYWGQGTQVTVSS
- polyreactivity (PSR sort gate): low polyreactivity

Sequence: QVQLVESGGGLVQAGGSLRLSCASSGRIIINYDMGWYRQAPGKEIELVAAITWSTGSTYADSVKGRFTISRDNAKNTVYLQMNSLKPEDTAVYYCAAPWGQTDDRHQGGDYWGQGTQVTVSS
- polyreactivity (PSR sort gate): low polyreactivity

Sequence: QVQLVESGGGLVQAGGSLRLSCAASGSTFWPNAMGWYRQAPGKERELVAAITGGGGTNYADSVKGRFTISRDNAKNTVYLQMNSLKPEDTAVYYCAAKKVNSRSHVKYYYWGQGTQVSVSS
- polyreactivity (PSR sort gate): high polyreactivity

Sequence: QVQLVESGGGLVQEGGSLRLRWAASGFIFDTYAMGWYRQAPGKERELVAGISDGGSTYYADSVKGRFTISRDNAKNTVYLQLNSLKPEDTAVYYCAAQGEYGFTAYYPGVSWGQGTQVTLSS
- polyreactivity (PSR sort gate): low polyreactivity

Sequence: QVQLVESGGGLVQAGGSLRLSCAASGSTIGGYAMGWYRQAPGKERELVAAITRSGGRTYYADSVKGRFTISRDNAKKTVYLQMNSLKPEDTAVYFCATLVTNARYDSWGQGTQVTVSS
- polyreactivity (PSR sort gate): high polyreactivity

Sequence: QVQLQESGGGLVQAGGSLCLSCAASGTIFFDGDMGWYRQAPGKEREFVAAINPGGSAYYADSVKGRLPLAAITHSVYLQMNSLKPEDTAVYYCAAKLFDVYGYYYWGQGTHVTVSS
- polyreactivity (PSR sort gate): low polyreactivity

Sequence: QVQLVESGGGLVQAGGSLRLTCAASVSIFPHYTMGWYRPAPGKERELVDAISNYGSSTYYADSVKGRFTISRDNAKNTVYLQMNSLKPEDSEVYYCNADDYGYSPGVNYWGQGTQVTVSS
- polyreactivity (PSR sort gate): low polyreactivity

Sequence: QVQLVESGGGLVQAGGSLRLSCAASGFIFRYYAMGWYRQAPGKERELVARISSSGGRTYYADSVKGRFTISRDNAKNTVYLQMNSLKPEDTAVYYCNTADYHGRWAFAWYGDYWGQGTQVTVSS
- polyreactivity (PSR sort gate): high polyreactivity

Sequence: QVQLEESGGGLVQAVGSLRLSCAASGFIFKRNAMGWYRQAPGKERELVAAITSRGGHTYYADSVKGRFTISRDNAKNTVYLQMNSLKAEDTAVYYCAATYASHDDYWGQGTQVTVSS
- polyreactivity (PSR sort gate): high polyreactivity

Sequence: HVQLQESGGGLVQAGGSLRLICAASGNIVDDDIMGWYRQAPGKEREIVASITDGGSTNYADSLKGRFTISRDNAKNTVYQQMNILIREVTAVYYCAAIAYPDIPTYFVYDSDSFYWGQGTQETVSS
- polyreactivity (PSR sort gate): high polyreactivity

Sequence: QDQLVESGGGLVQAGGSLRLSCAASGRIFYFNTMGWSRQAPGKERELVAAISKNGGSTYYADSVKGRFTISRDIAKNTVYLQMNSLKPEDTAVYYCAKTRRLSPYDYWGQGTQVTVSS
- polyreactivity (PSR sort gate): high polyreactivity
